Earlier results in article PMC5587394.

Molecular target: FGF20 (Homo sapiens) (UniProt Q9NP95)

FGF20, sequence (Q9NP95 whole entry): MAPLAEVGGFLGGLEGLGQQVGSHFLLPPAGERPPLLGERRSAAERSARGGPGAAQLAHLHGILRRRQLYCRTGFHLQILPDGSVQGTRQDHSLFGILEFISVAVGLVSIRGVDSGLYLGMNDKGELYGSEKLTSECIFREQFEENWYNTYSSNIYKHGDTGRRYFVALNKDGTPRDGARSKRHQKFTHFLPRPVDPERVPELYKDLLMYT

Kd: 100 nM
Substance: FGF20 (from UniProt Q9NP95)
